The text below walks through data of article PMC1950529.

Read-outs that look alike come from different tables or passages of the source.

Assay [1] deals with Thermus aquaticus DnaB helicase (Thermus aquaticus). As to the kind of experiment: SEC.
Assay [2] has the same target. As to the kind of experiment: SEC. This is another data set of the same source.

Regarding “Thermus aquaticus DnaB helicase (enzyme)”, the stoichiometry N in assay [1] and in assay [2] was 6 throughout.
